Measurements reported in patent US20070027096, “Aptamers to human epidermal growth factor receptor-3” (published 2007).

Key:
[1] = target: T1, HER3 extracellular domain (HER3ECD, ErbB3) (Homo sapiens, UniProt P21860 SEQ:20-643); assay: EMSA; 8 pmol RNA with 24 pmol HER3ECD, 37 C; A18 and A30 do not displace each other; conditions: tags: C-terminal V5 and hexa-His (pMT/BiP/V5-His A, S2 insect cells); chain copies: oligomeric (self-associated; stated); label: internal 32P
Description: (§1) For screening purposes, 8 pmol of internally labeled aptamer were incubated in binding buffer with 24 pmol of HER3ECD at 37° C. for 10 minutes and analyzed on 6% non-denaturing polyacrylamide gels as described above. Aptamers displaying substantial shift were reverse transcribed and sequenced. For subsequent analysis of A30 binding, internally labeled and unlabeled A30 was denatured at 90° C. for 2 min in PBS and cooled on ice for 1 min. A30 was incubated with HER3ECD in binding buffer for 10 min at 37° C. at the indicated concentrations and in the presence 0.5 μM tRNA and was analyzed by electrophoresis on a non-denaturing 6% polyacrylamide gel at 4° C. Were indicated, HER3ECD and heregulin were premixed at room temperature three minutes before the addition of A30.

[2] = target: T1, HER3 extracellular domain (HER3ECD, …); assay: EMSA; 8 pmol RNA with 24 pmol HER3ECD, 37 C; conditions: tags: C-terminal V5 and hexa-His (pMT/BiP/V5-His A, S2 insect cells); chain copies: oligomeric (self-associated; stated); label: internal 32P
Description: as §1

[3] = target: T1, HER3 extracellular domain (HER3ECD, …); assay: EMSA; apparent Kd by displacement with unlabeled A30; no heregulin; 10 mM HEPES pH 7.4, 100 mM NaCl, 2.5 mM MgCl2, 37 C, 0.5 uM tRNA; conditions: tags: C-terminal V5 and hexa-His (pMT/BiP/V5-His A, S2 insect cells); chain copies: oligomeric (self-associated; stated); label: internal 32P; triple hairpin loop
Description: as §1
(§2) Several lines of evidence provide evidence that the interaction of A30 with HER3ECD involves at least two different modes of binding. […] Addition of heregulin has two consequences. […] With respect to the heregulin-induced increase and dual mode of binding, we observed a similar, although less pronounced, effect for A30 binding to MCF7 cells (FIG. 4B+C). MCF7 cells endogenously express both HER3 and HER2. […] The addition of heregulin results in an increase in the number of A30 binding sites FIG. 4B), but this increase is relatively small (25% total 17% for low affinity and 8% for high affinity sites).

[4] = target: T2, HER3 on MCF7 cells (with endogenous HER2) (Homo sapiens, UniProt P21860 SEQ:20-1342); assay: competition; low affinity site on MCF7 cells, 4 C, PBS, +/-2.2, Scatchard; conditions: label: internal 32P; triple hairpin loop
Description: (§3) MCF7 cells (ATCC) were grown to 70% confluency on 6 well plates and washed with ice cold PBS. Following the washes, cells were incubated at 4° C. with 1 mL ice cold PBS or PBS containing 200 nM heregulin. After four hours an equal volume of ice cold PBS containing two microliter internally ³²P labeled A30 aptamer (80,000 cpm/μL), 20 μL RNAse inhibitor (20 units/μL), and varying concentrations of unlabeled aptamer were added. After four hours incubation, the supernatant was removed, and cells were washed three times with ice cold PBS. Displaced and bound radiolabeled aptamer was measured in duplicate.
as §2

[5] = target: T2, HER3 on MCF7 cells (with endogenous …); assay: competition; high affinity site on MCF7 cells, 4 C, PBS, +/-0.2, Scatchard; conditions: label: internal 32P; triple hairpin loop
Description: as §3, §2

heregulin = target: T3, heregulin (Homo sapiens); assay: EMSA; 0.5 uM protein; conditions: label: internal 32P; triple hairpin loop
T3 chain: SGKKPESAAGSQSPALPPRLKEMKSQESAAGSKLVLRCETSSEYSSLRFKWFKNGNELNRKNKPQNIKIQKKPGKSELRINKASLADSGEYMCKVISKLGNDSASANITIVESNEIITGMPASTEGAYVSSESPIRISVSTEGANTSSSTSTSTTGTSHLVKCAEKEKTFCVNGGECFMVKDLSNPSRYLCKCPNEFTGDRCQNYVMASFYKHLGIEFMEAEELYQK

[6] = target: HER2 extracellular domain (HER2-ECD) (Homo sapiens, UniProt P04626 SEQ:23-652); assay: EMSA; 0.5 uM protein; conditions: label: internal 32P; triple hairpin loop
[7] = target: T2, HER3 on MCF7 cells (with endogenous …); assay: cell_activity; half-maximal inhibition of heregulin-specific MCF7 growth; maximum 50% inhibition; conditions: label: internal 32P; triple hairpin loop
Description: MCF7 cells were seeded in 96 well plates (2500 cells/well) in RPMI, 2% fetal bovine serum, 2 units of RNAse inhibitor/ml and varying concentrations of heregulin and aptamer. After two days, cell growth was determined using an MTT/tetrazolium based assay (Promega). Cell growth was equated with the absorbance of converted and solubilized dye at 560 nm. All samples were determined in triplicate.
Next, we evaluated the ability of A30 to interfere with receptor activation by wild type heregulin. […] In contrast, the activation of HER2 by EGF, which proceeds through hetetodimers of EGFR and HER2, is not inhibited by A30 (FIG. 7b). The low intensity of tyrosine phosphorylation of HER2 after stimulation by EGF is a reflection of the lower levels of EGFR (5000/cell) compared to HER2 (15,000) and HER3 (25,000) (see, e.g. Aguilar et al. (1999) Oncogene 18, 6050-62) and the fact that EGFR signaling proceeds only in part through heterodimers with HER2. To evaluate if the inhibition of tyrosine phosphorylation is reflected in a reduction in heregulin-specific growth stimulation, we incubated MCF7 cells in the presence of different concentrations of A30 and heregulin for two days (FIG. 8). […] Half-maximal inhibition occurs at around 1 nM A30. The addition of A30 alone has little effect on the growth of MCF7 cells.

T1 sequence (P21860 20-643 E560G): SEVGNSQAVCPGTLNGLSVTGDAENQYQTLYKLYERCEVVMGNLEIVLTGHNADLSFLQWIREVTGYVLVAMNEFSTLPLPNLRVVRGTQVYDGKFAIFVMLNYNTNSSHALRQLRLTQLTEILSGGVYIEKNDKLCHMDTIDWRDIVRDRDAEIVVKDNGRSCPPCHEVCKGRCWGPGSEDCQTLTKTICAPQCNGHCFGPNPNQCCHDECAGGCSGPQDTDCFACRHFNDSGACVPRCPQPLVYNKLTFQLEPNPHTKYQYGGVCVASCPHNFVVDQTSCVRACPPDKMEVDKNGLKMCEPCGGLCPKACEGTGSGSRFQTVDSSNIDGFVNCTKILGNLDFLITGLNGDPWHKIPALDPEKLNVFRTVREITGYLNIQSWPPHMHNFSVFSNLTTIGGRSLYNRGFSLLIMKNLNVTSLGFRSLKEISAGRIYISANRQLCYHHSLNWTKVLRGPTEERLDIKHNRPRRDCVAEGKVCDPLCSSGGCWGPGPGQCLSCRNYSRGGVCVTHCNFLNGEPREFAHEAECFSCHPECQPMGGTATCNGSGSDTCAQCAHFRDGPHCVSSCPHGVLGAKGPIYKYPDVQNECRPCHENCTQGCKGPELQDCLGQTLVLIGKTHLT
T2 sequence (P21860 20-1342 E560G/E1064G): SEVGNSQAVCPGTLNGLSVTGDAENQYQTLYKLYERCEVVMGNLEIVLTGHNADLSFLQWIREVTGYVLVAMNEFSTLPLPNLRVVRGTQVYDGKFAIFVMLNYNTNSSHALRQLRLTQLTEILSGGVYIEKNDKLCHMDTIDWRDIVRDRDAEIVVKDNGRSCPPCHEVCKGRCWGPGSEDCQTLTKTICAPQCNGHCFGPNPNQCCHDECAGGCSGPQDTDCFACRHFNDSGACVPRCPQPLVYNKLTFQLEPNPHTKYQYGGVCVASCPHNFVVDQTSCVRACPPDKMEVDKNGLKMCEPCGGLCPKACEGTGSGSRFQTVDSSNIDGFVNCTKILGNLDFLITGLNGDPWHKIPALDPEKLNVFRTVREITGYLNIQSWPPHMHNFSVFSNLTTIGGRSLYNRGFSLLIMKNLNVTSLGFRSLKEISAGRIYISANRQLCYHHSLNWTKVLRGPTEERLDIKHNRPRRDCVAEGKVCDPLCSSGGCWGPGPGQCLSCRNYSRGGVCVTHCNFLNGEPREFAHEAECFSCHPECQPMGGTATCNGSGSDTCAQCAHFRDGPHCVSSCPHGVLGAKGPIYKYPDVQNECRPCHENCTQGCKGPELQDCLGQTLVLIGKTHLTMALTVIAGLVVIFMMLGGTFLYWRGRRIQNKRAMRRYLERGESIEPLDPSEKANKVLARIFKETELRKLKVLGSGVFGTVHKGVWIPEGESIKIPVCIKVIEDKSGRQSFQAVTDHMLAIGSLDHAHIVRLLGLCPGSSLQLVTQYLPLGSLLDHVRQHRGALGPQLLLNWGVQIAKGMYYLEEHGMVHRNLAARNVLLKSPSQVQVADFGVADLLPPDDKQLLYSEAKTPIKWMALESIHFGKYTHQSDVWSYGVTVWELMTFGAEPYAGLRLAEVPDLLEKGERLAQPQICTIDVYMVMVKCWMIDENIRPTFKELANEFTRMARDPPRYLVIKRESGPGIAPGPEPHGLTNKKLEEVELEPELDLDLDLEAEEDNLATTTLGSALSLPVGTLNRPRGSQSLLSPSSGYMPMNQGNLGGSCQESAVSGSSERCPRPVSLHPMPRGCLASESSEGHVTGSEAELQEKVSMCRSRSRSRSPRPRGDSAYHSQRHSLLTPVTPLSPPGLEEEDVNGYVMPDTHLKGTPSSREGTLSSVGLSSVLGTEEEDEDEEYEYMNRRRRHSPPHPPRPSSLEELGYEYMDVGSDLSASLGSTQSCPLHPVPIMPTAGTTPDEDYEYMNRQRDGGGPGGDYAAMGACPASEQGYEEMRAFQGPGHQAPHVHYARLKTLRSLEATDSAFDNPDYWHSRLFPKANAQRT

B1: A18 (ssRNA)
RNA: GGGAAUUCCGCGUGUGCACGAGUAUAGCCCACAUGGCACGACAGGGACGUUUCAUGUGCACAGUUGGUCCGUUCGGGAUCCUC
binding result [1]: binds

B2: A6 (ssRNA)
RNA: GGGAAUUCCGCGUGUGCAGAACAAUCGCAUAGGCCGCAAGGUUAGUUUCGUUGUCCGCCCGGUGCAGUCCGUUCGGGAUCCUC
binding result [2]: binds

B3: A37 (ssRNA)
RNA: GGGAAUUCCGCGUGUGCUUGAGAGGUCGUGCCAACUCUCAAGGUUGUCUUUGCUCUCCGCUCUGUGGUCCGUUCGGGAUCCUC
binding result [2]: binds

B4: A30 (ssRNA)
RNA: GGGAAUUCCGCGUGUGCCAGCGAAAGUUGCGUAUGGGUCACAUCGCAGGCACAUGUCAUCUGGGCGGUCCGUUCGGGAUCCUC
Kd [3]: 45 nM
Kd [4]: 21 nM
Kd [5]: 3.3 nM
binding result (heregulin): no binding
binding result [6]: no binding
IC50 [7]: ~1 nM

B5: A23 (ssRNA)
RNA: GGGAAUUCCGCGUGUGCGAGGGGCGAGGACGCCGAGUAUAGCCCCUAGAGGUGGAUGUUUCACGGUGUCCGUUCGGGAUCCUC
binding result [2]: binds

B6: A19 (ssRNA)
RNA: GGGAAUUCCGCGUGUGCAGAUCAGGACAGAGCGCACAGGUGCCAUCCUGGUCUAACGCCCUCGAUGGUCCGUUCGGGAUCCUC
binding result [2]: binds
